Test results from patent US20180057581A1 (MorphoSys, published 2018).
Changes are numbered by the printed parent chain.

Assays:
[1] = target: T1, Recombinant human sgM-CSF (human, UniProt P09603 33-255); test: Table 12 summary, criterion Binding, Human M-CSF; assay and antibody format not named there
T1 construct: also called human secreted glycosylated M-CSF; Human M-CSF
T1 sequence: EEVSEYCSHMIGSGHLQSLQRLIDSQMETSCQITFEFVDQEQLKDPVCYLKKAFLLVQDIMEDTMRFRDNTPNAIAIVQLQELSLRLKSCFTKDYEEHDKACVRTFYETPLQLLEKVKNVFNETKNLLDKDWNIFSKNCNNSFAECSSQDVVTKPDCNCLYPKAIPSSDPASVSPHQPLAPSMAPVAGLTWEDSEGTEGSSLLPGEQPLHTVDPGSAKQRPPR
Experimental: The monovalent affinity of the antibodies of the present disclosure was determined by soluble equilibrium titration (Haenel et al. (2005) Anal Biochem 339, 182-4).

[2] = target: T1, Recombinant human sgM-CSF; test: cell-based or functional assay
[3] = target: T2, Recombinant cynomolgus monkey sgM-CSF (cynomolgus (Macaca fascicularis), UniProt P09603 33-255 (human entry), limits assumed); test: cell-based or functional assay
T2 chain: T1 sequence with V186M, E192D

[4] = target: Serum albumin (human) (human, UniProt P02768 25-609); test: MSD specificity profiling, coated protein
Experimental: (§1) For this specificity profiling test the different proteins and controls were coated on two 384-well MSD plates with a concentration of 1 μg/ml at 4° C. over night. Plates were blocked with BSA and washed three times with PBS with 0.05% (v/v) Tween 20. Antibody samples were diluted to 100 nM and 10 nM in assay buffer (PBS with 0.5% (w/v) BSA, 0.05% (v/v) Tween 20). […] Samples and controls were incubated for three hours at room temperature. The plates were washed three times and 30 μl detection antibody (ECL-labeled anti-human Fab) were added per well and incubated for 1 h. After washing, MSD Read Buffer T with surfactant was added and electrochemiluminescence signals were detected using a Sector Imager 6000 (Meso Scale Discovery, Gaithersburg, Md., USA).

[5] = target: Cytochrome c (cow) (cow, UniProt P62894 2-105); test: MSD specificity profiling, coated protein
Sequence of Cytochrome c (cow) (P62894 2-105 limits assumed): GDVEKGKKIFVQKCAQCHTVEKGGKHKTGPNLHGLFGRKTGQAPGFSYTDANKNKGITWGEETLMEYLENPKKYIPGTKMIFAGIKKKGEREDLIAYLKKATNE
Experimental: as §1

[6] = target: T3, Ovalbumin (chicken) (chicken, UniProt P01012 2-386); test: MSD specificity profiling, coated protein
T3 sequence (looked up): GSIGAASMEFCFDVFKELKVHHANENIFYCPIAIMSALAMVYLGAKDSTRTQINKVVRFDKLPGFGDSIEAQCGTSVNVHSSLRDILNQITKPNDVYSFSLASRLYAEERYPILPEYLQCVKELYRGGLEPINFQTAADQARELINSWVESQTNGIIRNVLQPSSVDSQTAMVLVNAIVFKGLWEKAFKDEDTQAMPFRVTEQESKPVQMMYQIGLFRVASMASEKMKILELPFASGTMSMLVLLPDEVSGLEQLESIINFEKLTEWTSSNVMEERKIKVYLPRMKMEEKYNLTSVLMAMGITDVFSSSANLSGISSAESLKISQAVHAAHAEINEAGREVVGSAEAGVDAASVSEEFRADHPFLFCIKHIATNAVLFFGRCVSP
Experimental: as §1

[7] = target: Lysozyme (chicken) (chicken, UniProt P00698 19-147); test: MSD specificity profiling, coated protein
Sequence of Lysozyme (chicken) (P00698 19-147): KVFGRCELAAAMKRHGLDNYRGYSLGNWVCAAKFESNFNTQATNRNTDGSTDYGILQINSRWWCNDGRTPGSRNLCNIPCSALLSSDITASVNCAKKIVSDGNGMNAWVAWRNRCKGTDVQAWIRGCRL
Experimental: as §1

[8] = target: T4, RNase B (cow) (cow, UniProt P61823 27-150); test: MSD specificity profiling, coated protein
T4 sequence (looked up): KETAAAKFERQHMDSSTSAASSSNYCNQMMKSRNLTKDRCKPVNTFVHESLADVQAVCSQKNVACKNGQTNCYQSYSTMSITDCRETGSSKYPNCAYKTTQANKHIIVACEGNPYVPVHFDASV
Experimental: as §1

[9] = target: T5, RNase A (cow) (cow, UniProt P61823 27-150); test: MSD specificity profiling, coated protein
T5 sequence (looked up): T4 sequence (looked up)
Experimental: as §1

[10] = target: Myoglobin (horse) (horse, UniProt P68082 2-154); test: MSD specificity profiling, coated protein
Sequence of Myoglobin (horse) (P68082 2-154 limits assumed): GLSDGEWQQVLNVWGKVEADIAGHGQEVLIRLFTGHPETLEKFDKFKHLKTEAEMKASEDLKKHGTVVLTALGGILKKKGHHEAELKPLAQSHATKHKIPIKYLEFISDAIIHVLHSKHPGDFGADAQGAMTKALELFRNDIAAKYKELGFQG
Experimental: as §1

[11] = target: T6, Trypsinogen (cow) (cow, UniProt P00760 18-246); test: MSD specificity profiling, coated protein
T6 sequence (looked up): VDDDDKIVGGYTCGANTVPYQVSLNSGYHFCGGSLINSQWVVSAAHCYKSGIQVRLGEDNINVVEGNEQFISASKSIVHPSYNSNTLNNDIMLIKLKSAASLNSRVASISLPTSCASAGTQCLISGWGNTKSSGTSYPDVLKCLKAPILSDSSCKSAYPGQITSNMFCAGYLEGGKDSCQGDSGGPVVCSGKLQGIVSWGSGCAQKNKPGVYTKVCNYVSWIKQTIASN
Experimental: as §1

[12] = target: Pepsinogen (pork) (pork, UniProt P00791 16-385); test: MSD specificity profiling, coated protein
Sequence of Pepsinogen (pork) (P00791 16-385): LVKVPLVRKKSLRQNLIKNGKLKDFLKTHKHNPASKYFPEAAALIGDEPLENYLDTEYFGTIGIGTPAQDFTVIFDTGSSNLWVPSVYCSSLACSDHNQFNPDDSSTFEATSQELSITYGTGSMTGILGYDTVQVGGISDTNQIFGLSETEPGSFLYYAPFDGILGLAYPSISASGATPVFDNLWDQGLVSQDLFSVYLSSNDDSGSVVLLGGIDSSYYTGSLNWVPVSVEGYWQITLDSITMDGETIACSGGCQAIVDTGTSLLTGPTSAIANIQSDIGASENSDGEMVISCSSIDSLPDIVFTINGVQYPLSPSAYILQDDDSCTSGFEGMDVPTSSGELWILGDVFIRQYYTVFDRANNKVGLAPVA
Experimental: as §1

B1: Camille (format not stated) (antibody, V domains shown)
VH: QVQLQQSGPGLVKPSQTLSLTCAISGESVSTSSAAWNWIRQSPSRGLEWLGRTYYRSKWKHEYAVSVKSRITINPDTSKNQFSLQLNSVTPEDTAVYYCARDRYYYSAFDYWGQGTLVTVSS
VL: QSALTQPASVSGSPGQSITISCTGTSSDVGGYNSVSWYQQHPGKAPKLLIYAVSNRPSGVSNRFSGSKSGNTASLTISGLQAEDEADYYCASYDERFTRVFGGGTKLTVLG
notes: also called Antibody Camille
For B1, the Kd [1] was 0.018 nM, the “Cell viability assay (IC50), Human M-CSF” value [2] was 2 pM and the “Cell viability assay (IC50), Cynomolgus M-CSF” value [3] was 3 pM. B1: no binding (tested: 100 nM and 10 nM antibody) [4]; no binding (tested: 100 nM and 10 nM antibody) [5]; no binding (tested: 100 nM and 10 nM antibody) [6]. B1: no binding (tested: 100 nM and 10 nM antibody) [7]; no binding (tested: 100 nM and 10 nM antibody) [8]; no binding (tested: 100 nM and 10 nM antibody) [9]. B1: no binding (tested: 100 nM and 10 nM antibody) [10]; no binding (tested: 100 nM and 10 nM antibody) [11]; no binding (tested: 100 nM and 10 nM antibody) [12].
